This is an account of results in PMC3796546.

What all share (test): co-IP with mass spectrometry
Test [1] deals with ARF2. To be noted: cross-linked in vivo with formaldehyde, p value 0.05060.
In test [2] the target is SUP35. The note with it: cross-linked in vivo with formaldehyde, p value 0.08282.
Test [3] deals with TY1B-BR. To be noted: cross-linked in vivo with formaldehyde, p value 0.09425.
The target of test [4] is REP1. The note with it: cross-linked in vivo with formaldehyde, p value 0.25926.
In test [5] the target is RPL13A/B. The note with it: cross-linked in vivo with formaldehyde, p value 0.05060.
For test [6], the target named is TY1B-ER1. The note with it: cross-linked in vivo with formaldehyde, p value 0.21132.
Test [7] has as its target RPL36A. To be noted: cross-linked in vivo with formaldehyde, p value 0.13485.
In test [8] the target is ADO1. The note with it: cross-linked in vivo with formaldehyde, p value 0.02371.
Test [9] addresses PFK2. The note with it: cross-linked in vivo with formaldehyde, p value 0.14162.
Test [10] concerns the target HHF1. The note with it: cross-linked in vivo with formaldehyde, p value 0.08671.
The target of test [11] is ENO1. The note with it: cross-linked in vivo with formaldehyde, p value 0.14901.
For test [12], the target named is HOM2. The note with it: cross-linked in vivo with formaldehyde, p value 0.02371.

On to “N-terminal 3xHA-tagged wild-type Irc20 (from UniProt Q06554) C1239A”, for which the ratio to parent in test [1] was 2.5; in [2], 2.14; in test [3], > 9; in test [4], 2; in test [5], 2.2; in test [6], > 6. The ratio to parent in test [7] was > 4; in test [8] it was 5; in test [9], 6; in [10], 2; in [11], 3.5; in test [12], 2. In addition, the other: sum stood at 5 in [1] (parent: 2); 15 in test [2] (parent: 7); 9 in test [3] (parent: 0); 4 in test [4] (parent: 2); 11 in test [5] (parent: 5); 6 in test [6] (parent: 0). The other: sum in [7] (parent: 0) amounted to 4; in test [8] (parent: 1), 5; in test [9] (parent: 1), 6; in [10] (parent: 4), 8; in test [11] (parent: 2) it was 7; in test [12] (parent: 4) it was 8.
